B1: Nuclear receptor subfamily 1 group D member 2, residues 103 to 171; numbered along this chain, Q14995 (parent)
chain: CKVCGDVASGFHYGVHACEGCKGFFRRSIQQNIQYKKCLKNENCSIMRMNRNRCQQCRFKKCLSVGMSR
B2: Zinc finger protein ZIC 2, residues 250 to 295; numbered along this chain, O95409 (parent)
chain: QCIKQELICKWIDPEQLSNPKKSCNKTFSTMHELVTHVSVEHVGGP

± gives the uncertainty stated by the source.

The first series covers variants of B1. As to the kind of experiment: abundance fitness (aPCA) (normalised: wild type 0, dead -1); higher = more abundant; growth selection in yeast, the domain comes from the species named. The conditions noted are these: Homo sapiens.
H12G: the abundance fitness was -0.421 ± 0.075.

For the variant R53P, the abundance fitness amounted to 0.142 ± 0.074.

For the variant H16V, the abundance fitness was -0.008 ± 0.059. H16A: the abundance fitness is -0.169 ± 0.055. Still for that read-out and setting: the figure for H16E is 0.219 ± 0.082. As to H16M, the abundance fitness was found to be 0.123 ± 0.079.

Regarding C1G, the abundance fitness was -0.939 ± 0.26. Same read-out and setting: the figure for C38R is -0.842 ± 0.14; for K37A it is 0.064 ± 0.081. K37I: the abundance fitness is -0.279 ± 0.14. As to K37W, the abundance fitness was -0.225 ± 0.17.

With R48F, the abundance fitness was -0.318 ± 0.41. The same measure, in the same setting: then R48S, with -0.002 ± 0.069; and R48C, with -0.417 ± 0.23. On the same count and under the same terms, then R48Q, with 0.134 ± 0.15.

Turning to G66V, the abundance fitness is -0.798 ± 0.23. As to Q31A, the abundance fitness was -0.51 ± 0.099.

As to Q31G, the abundance fitness was -0.152 ± 0.072.

In the case of Q31N, the abundance fitness is -0.475 ± 0.37. On the same count and under the same terms, the figure for N50S is -0.349 ± 0.088; for N50V it is -0.306 ± 0.1; for S64R it is -0.334 ± 0.1. Still for that read-out and setting: the figure for A8D is -0.724 ± 0.42; for A8T it is -0.363 ± 0.15; for C57R it is -1.21 ± 0.32. Still for that read-out and setting: the figure for R27W is 0.091 ± 0.23. Take R27S: the abundance fitness is -0.51 ± 0.23.

In the case of E19G, the abundance fitness was -0.63 ± 0.19. In the case of E19P, the abundance fitness is -0.465 ± 0.42.

For the variant E19Q, the abundance fitness is -0.699 ± 0.26.

Take E19L: the abundance fitness was -0.858 ± 0.32.

For the variant S9Y, the abundance fitness is -0.49 ± 0.4. On the same count and under the same terms, the figure for G10D is -0.433 ± 0.22; for G10V it is -0.119 ± 0.38. With Y13I, the abundance fitness was -0.73 ± 0.12. On to G23D, for which the abundance fitness came out at 0.195 ± 0.34.

Regarding G14M, the abundance fitness was -0.759 ± 0.2. On the same count and under the same terms, then G14W, with -0.878 ± 0.22.

For the variant M67T, the abundance fitness is -0.822 ± 0.24. Same read-out and setting: the figure for G5H is -0.623 ± 0.18; for I29E it is -0.675 ± 0.21; for I29T it is -0.282 ± 0.091. On to I29G, for which the abundance fitness was -0.821 ± 0.13. As for I29Q, the abundance fitness is -0.339 ± 0.1. On the same count and under the same terms, the figure for I29F is -0.081 ± 0.18.

Consider I29K, for which the abundance fitness was -0.98 ± 0.29. Regarding I29C, the abundance fitness is -0.388 ± 0.17. L39E: the abundance fitness was 0.262 ± 0.13.

As for L39S, the abundance fitness was 0.165 ± 0.082. On the same count and under the same terms, then L39M, with 0.1 ± 0.14; and Q55A, with 0.099 ± 0.077. On the same count and under the same terms, then Q55G, with 0.088 ± 0.08. As for Q55Y, the abundance fitness was -0.08 ± 0.17.

On to N43S, for which the abundance fitness was -0.317 ± 0.094. On to N43G, for which the abundance fitness is -0.011 ± 0.071. As to N43H, the abundance fitness is -0.37 ± 0.14. On the same count and under the same terms, the figure for N43Q is -0.061 ± 0.12; for N43M it is -0.373 ± 0.15. On to N43T, for which the abundance fitness was -0.215 ± 0.12. For the variant A17W, the abundance fitness is -0.702 ± 0.18.

With I46K, the abundance fitness was -0.789 ± 0.38. Turning to I46P, the abundance fitness was determined as 0.068 ± 0.15. Still for that read-out and setting: then R26Y, with -0.246 ± 0.24; and R26Q, with 0.214 ± 0.15. On the same count and under the same terms, the figure for F59T is -0.512 ± 0.37. As for F59Q, the abundance fitness was -0.536 ± 0.41. Same read-out and setting: then S28V, with -0.419 ± 0.21; and S28T, with 0.24 ± 0.37; and D6M, with -0.345 ± 0.17. Same read-out and setting: the figure for D6K is -0.862 ± 0.33; for Q30V it is -0.092 ± 0.098; for Q30F it is -0.634 ± 0.3. The same measure, in the same setting: then Q56R, with -0.127 ± 0.076. For R58L, the abundance fitness is 0.278 ± 0.06. The same measure, in the same setting: the figure for R58S is -0.877 ± 0.24; for R58H it is 0.466 ± 0.11.

Take C4T: the abundance fitness was -0.599 ± 0.27. The same measure, in the same setting: the figure for E42L is -0.847 ± 0.15; for E42K it is -0.109 ± 0.14; for E42R it is -0.639 ± 0.11.

Take E42W: the abundance fitness is -0.642 ± 0.25. E42M: the abundance fitness was -0.008 ± 0.15. For the variant E42T, the abundance fitness was -0.671 ± 0.19. For the variant K40M, the abundance fitness was -0.059 ± 0.11. With K40Y, the abundance fitness amounted to 0.26 ± 0.12.

S45M: the abundance fitness worked out at 0.156 ± 0.21.

Regarding S45P, the abundance fitness is -0.166 ± 0.13. Consider K36Q, for which the abundance fitness was -0.305 ± 0.27. Same read-out and setting: then K36D, with -0.439 ± 0.31; and L63V, with -0.502 ± 0.2; and L63M, with -0.914 ± 0.33. Regarding L63T, the abundance fitness is -0.523 ± 0.47.

On to I33G, for which the abundance fitness is -0.338 ± 0.053. The same measure, in the same setting: the figure for I33Y is -0.181 ± 0.12; for I33P it is -0.672 ± 0.12; for V7F it is -0.061 ± 0.17. Same read-out and setting: then K61W, with -0.746 ± 0.21; and K61E, with -0.414 ± 0.16. Consider K61S, for which the abundance fitness is -0.769 ± 0.19. The same measure, in the same setting: then K61L, with -0.422 ± 0.12. Take K61G: the abundance fitness was -0.385 ± 0.12. The same measure, in the same setting: the figure for V3E is -0.754 ± 0.28. Take V3R: the abundance fitness was -1.25 ± 0.45. Consider V3G, for which the abundance fitness is -0.738 ± 0.22. Consider N41F, for which the abundance fitness was -0.717 ± 0.41. For N41P, the abundance fitness is -0.264 ± 0.13. On the same count and under the same terms, the figure for N41W is -0.664 ± 0.24; for R69E it is 0.008 ± 0.16; for R69D it is -0.404 ± 0.26. As to R69Q, the abundance fitness was determined as 0.07 ± 0.13. On the same count and under the same terms, then V15D, with -0.746 ± 0.33; and V15L, with -0.3 ± 0.1.

In the case of V15E, the abundance fitness is -0.679 ± 0.17.

Take F24K: the abundance fitness is -1.04 ± 0.46. On the same count and under the same terms, the figure for F24T is -0.422 ± 0.21; for F24Q it is -0.664 ± 0.41. Still for that read-out and setting: then N52W, with -0.706 ± 0.4; and N52A, with 0.394 ± 0.25.

With N52S, the abundance fitness was -0.395 ± 0.46. With N52T, the abundance fitness is -0.756 ± 0.44.

In the case of V65S, the abundance fitness is -0.291 ± 0.08. In the case of V65Q, the abundance fitness is -0.733 ± 0.17. On to F25G, for which the abundance fitness is -0.86 ± 0.28. As for C62V, the abundance fitness was -0.665 ± 0.23. Consider S68R, for which the abundance fitness is -0.354 ± 0.12.

Take S68A: the abundance fitness stood at 0.029 ± 0.2.

As for S68L, the abundance fitness is -0.584 ± 0.18. On the same count and under the same terms, the figure for S68Q is 0.314 ± 0.15; for M49T it is 0.147 ± 0.18; for M49Q it is 0.15 ± 0.18. Consider C18I, for which the abundance fitness is -0.355 ± 0.4.

Turning to C18W, the abundance fitness was -0.752 ± 0.29.

For the variant C18A, the abundance fitness was -0.515 ± 0.18. In the case of C18R, the abundance fitness is -0.751 ± 0.14. For C18V, the abundance fitness was -0.79 ± 0.31. With C18G, the abundance fitness was -0.813 ± 0.14. The same measure, in the same setting: then N32F, with -0.408 ± 0.14; and M47A, with 0.006 ± 0.1; and M47D, with 0.283 ± 0.11. Regarding M47I, the abundance fitness was -0.421 ± 0.24. The same measure, in the same setting: then M47E, with 0.408 ± 0.15; and C54I, with -0.903 ± 0.28. Same read-out and setting: then C54W, with -1.09 ± 0.22; and K60V, with -0.249 ± 0.17.

The variants in a further series derive from B2. Described as above. The conditions noted are these: Homo sapiens.
Take P46K: the abundance fitness is 0.593 ± 0.26. For the variant P46C, the abundance fitness stood at 0.1 ± 0.29.

For P46H, the abundance fitness was found to be 0.193 ± 0.26.

Take P46F: the abundance fitness was -0.736 ± 0.36. The same measure, in the same setting: the figure for P46L is -0.556 ± 0.28; for P46W it is -0.709 ± 0.43; for P46A it is -0.578 ± 0.24.

With P46I, the abundance fitness is -0.976 ± 0.43.

For P46R, the abundance fitness is -0.231 ± 0.17. Take P46D: the abundance fitness is 0.004 ± 0.26.

For the variant P46T, the abundance fitness is -0.673 ± 0.21. Same read-out and setting: the figure for G45K is -0.134 ± 0.12; for G45M it is -0.382 ± 0.12; for G45I it is 0.133 ± 0.12. As for G45Y, the abundance fitness is -0.648 ± 0.13. For the variant G45P, the abundance fitness was -0.195 ± 0.16. Same read-out and setting: the figure for G45T is -0.093 ± 0.11; for G45Q it is -0.217 ± 0.13; for G45V it is -0.242 ± 0.09. The same measure, in the same setting: the figure for G45S is -0.244 ± 0.089; for G45R it is -0.114 ± 0.087. On the same count and under the same terms, the figure for G45L is -0.149 ± 0.092; for G45H it is -0.443 ± 0.13.

Source of the values: the Human Domainome abundance scans (Beltran et al. 2025).
